How the values were obtained:
[1] = target: T1, NFAT1 DNA binding domain (Homo sapiens, UniProt Q13469 Q13469:399-676); test: EMSA; 20 mM Hepes pH 7.6, 150 mM NaCl, 1 mM DTT, 12% glycerol, RT; formaldehyde diminished binding, BFPX probes did not; also photocrosslinked; conditions: label: 5'-Cy5 (or 5'6-FAM)
T1 sequence: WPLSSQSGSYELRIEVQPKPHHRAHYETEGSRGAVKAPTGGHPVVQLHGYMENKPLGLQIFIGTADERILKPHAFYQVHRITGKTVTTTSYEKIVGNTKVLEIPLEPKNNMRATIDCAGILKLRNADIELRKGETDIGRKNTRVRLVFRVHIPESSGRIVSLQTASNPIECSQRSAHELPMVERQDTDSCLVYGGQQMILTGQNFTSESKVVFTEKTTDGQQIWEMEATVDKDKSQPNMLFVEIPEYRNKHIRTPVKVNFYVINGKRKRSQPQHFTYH
Experimental: FIG. 12C depicts Native EMSA assay of the effect of Formaldehyde (FA), BFPX probe (SPB-AAD, SPB-PEG4-AAD, and SPB-Spermidine-AD) at various concentrations, and UVA (365 nm) on the DNA binding by NFAT1. The binding reactions were performed in a buffer of 20 mM Hepes pH 7.6, 150 mM NaCl, 1 mM DTT, 12% glycerol. Typically protein and DNA are mixed to bind at room temperature for 30 min, followed by addition of BFPX probes for an additional 15 min and then UV illumination. In the case of FA treatment, the reaction time is 10 min at room temperature and then quenched by 250 mM glycine. […] Half of the binding reaction (7.5 μl) was run on a 10% PAGE 0.5×TBE gel and visualized by Cy5 fluorescence on DNA. […] Neither of these experimental imperfections affected the main conclusion of this experiment because the double stranded-DNA bands and the specific NFAT-DNA complex bands (the middle sharp bands) are well defined and can be monitored without the interference of the other bands.
(§1) FIG. 12D depicts the other half of binding reaction from the above experiments (FIG. 12C) were added SDS loading dye (2% SDS), boil for 10 min, and run on SDS gel (4-15% gradient gel). The gel was visualized by Cy5 fluorescence for DNA.

[2] = target: T1, NFAT1 DNA binding domain; test: SPB-AAD 100 uM + UV365 photocrosslinking, SDS-PAGE
Experimental: The UV illumination (as indicated by a positive sign) was carried out using a LED Chip (21.4 mm×21.4 mm, 365-370 nm, 30 Watt, sample distance 2 cm, exposure time 2-15 min at 4 degree C., here the exposure time is 15 min). Half of the binding reaction (7.5 μl) was run on a 10% PAGE 0.5×TBE gel and visualized by Cy5 fluorescence on DNA. The small amount of single stranded DNA is due to incomplete annealing. The higher smearing bands are most likely non-specific protein complexes. Neither of these experimental imperfections affected the main conclusion of this experiment because the double stranded-DNA bands and the specific NFAT-DNA complex bands (the middle sharp bands) are well defined and can be monitored without the interference of the other bands.
as §1
FIG. 12E depicts further characterization of BFPX crosslinking of NFAT1/DNA complexes using different DNA substrates and staining techniques. […] The reactions were then analyzed by SDS PAGE under denaturing condition as described in FIG. 12D. […]

[3] = target: T2, MEF2A DNA binding domain (Homo sapiens, UniProt Q02078 Q02078:2-95); test: SPB-AAD 100 uM + UV365 photocrosslinking, SDS-PAGE; no crosslink without probe; conditions: chain copies: 2; label: 5'6-FAM
[4] = target: T2, MEF2A DNA binding domain; test: 4AMT-SDAD + UV365 photocrosslinking, reversed by TCEP; conditions: chain copies: 2; label: 5'6-FAM
[5] = target: Nkx2.5 DNA binding domain (homeodomain) (Homo sapiens, UniProt P52952 P52952:138-197); test: SPB-AAD, SPB-PEG4-AAD or SPB-Spermidine-AD + UV365 photocrosslinking, SDS-PAGE; none with formaldehyde or UV alone; conditions: label: 5'6-FAM
[6] = target: p53 DNA binding domain (Homo sapiens, UniProt P04637 P04637:102-292); test: SPB-AAD, SPB-PEG4-AAD or SPB-Spermidine-AD + UV365 photocrosslinking, SDS-PAGE; conditions: chain copies: 4 stated; label: 5'-Cy5
Sequence of p53 DNA binding domain (P04637 102-292, one chain of several): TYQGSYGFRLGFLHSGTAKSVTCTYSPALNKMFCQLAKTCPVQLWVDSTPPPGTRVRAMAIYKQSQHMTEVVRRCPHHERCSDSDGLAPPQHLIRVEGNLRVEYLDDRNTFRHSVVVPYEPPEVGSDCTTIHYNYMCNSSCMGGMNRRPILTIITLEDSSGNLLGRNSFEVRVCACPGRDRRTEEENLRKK

T2 sequence (Q02078 2-95, one chain of several): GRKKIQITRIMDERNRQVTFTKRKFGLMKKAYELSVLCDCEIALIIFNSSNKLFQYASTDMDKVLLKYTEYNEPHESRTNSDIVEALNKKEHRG
Sequence of Nkx2.5 DNA binding domain (homeodomain) (P52952 138-197, one chain of several): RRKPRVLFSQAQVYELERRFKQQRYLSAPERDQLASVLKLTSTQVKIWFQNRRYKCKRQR

B1: ARRE2 27-mer (dsDNA)
DNA 1: CCATAGAGGAAAATTTGTTTCATACAG
DNA 2: CTGTATGAAACAAATTTTCCTCTATGG
- binding result [1]: binds

B2: c2 NFAT 16-mer (dsDNA)
DNA 1: GTAGAGGAATTTCCTA
DNA 2: TAGGAAATTCCTCTAC
- binding result [2]: binds

B3: MEF2 consensus site DNA (44-mer; only the core site printed) (dsDNA)
DNA 1: CTATAAATAG
DNA 2: CTATTTATAG
- binding result [3]: binds

B4: MEF2 site 16-mer (only the core site printed) (dsDNA)
DNA 1: CTATAAATAG
DNA 2: CTATTTATAG
- binding result [4]: binds

B5: Nkx2.5 site 19-mer (dsDNA)
DNA 1: ACTATTTTAAGAACGTGCT
DNA 2: AGCACGTTCTTAAAATAGT
- binding result [5]: binds

B6: p53 tetramer site 37-mer (dsDNA)
DNA 1: GCTAGCGTAGCAGGCATGCCTAGGCATGCCTGCTACG
DNA 2: CGTAGCAGGCATGCCTAGGCATGCCTGCTACGCTAGC
- binding result [6]: binds
